The values below come from article PMC6602965.

In general, stoichiometry N refers to a count of units in the complex or per binding partner.

For test [1], the target named is AhlB (Aeromonas hydrophila strain AL09-71). Nature of the test: crystal structure.
Test [2] has as its target AhlC (Aeromonas hydrophila strain AL09-71). Briefly: SEC; gel filtration of AhlC alone (Supplementary Fig. 2). (In general: Size exclusion chromatography separates by hydrodynamic size, large species first.)
For test [3] the target is unchanged. Nature of the test: crystal structure; soluble AhlC, two crystal forms (P6(5)22, 2.35 A; P2(1), 2.6 A).
Test [4] has the same target. Briefly: cross-linking; 1.4 mg/ml soluble AhlC with glutaraldehyde (15 min, room temperature), then EDC in 0.1 M MES pH 6 (30 min); SDS-PAGE.
Test [5] deals with AhlB (Aeromonas hydrophila strain AL09-71).
The target in test [6] is AhlC (Aeromonas hydrophila strain AL09-71).

Substance AhlB (natural protein) came in with a stoichiometry N in test [1] of 10.

In the case of AhlC (natural protein), the stoichiometry N in test [2] was 4; in test [3], 4; in test [4] it was 2. Also, in test [5], the haemolysis of horse erythrocytes by a 1:1 AhlB/AhlC mixture, 1 h, against lysis by osmotic shock with water stood at 50%. The haemolysis with glutaraldehyde-cross-linked AhlC (mixture of monomeric and dimeric AhlC), reduction of lysis in test [6] was found to be 50 % reduction.
